From paper PMC8191777
Residue numbers refer to the chain shown, from its start.

Tests used:
[1] = target: T1, TbTRF-lMyb280-382 (Trypanosoma brucei) (UniProt Q4VHG6); assay: EMSA
T1 sequence: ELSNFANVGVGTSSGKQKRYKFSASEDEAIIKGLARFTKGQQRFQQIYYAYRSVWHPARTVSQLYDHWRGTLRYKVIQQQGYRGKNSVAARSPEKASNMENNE

[2] = target: T2, TbTRF-lMyb280-382 R298E R298E (Trypanosoma brucei) (UniProt Q4VHG6); assay: EMSA
T2 sequence: T1 sequence with R19E

Row | Sequence | Kd [1] | Kd [2]
1 | CCCUAACCCUAACCCUAACCCUAACCCUAACCCUAACCCUAACCCUAACCCUAACCCUAACCCUAACCCUAA [ss(CCCUAA)12] | 17.2 µM | 0.036 µM
2 | UUAGGGUUAGGGUUAGGGUUAGGGUUAGGGUUAGGGUUAGGGUUAGGGUUAGGGUUAGGGUUAGGGUUAGGG [ss(UUAGGG)12] | 0.268 µM | 0.005 µM
